From paper PMC3931707, “Distinct Structural Features of the Peroxide Response Regulator from Group A Streptococcus Drive DNA Binding”

Assays:
[1] = target: peroxide response regulator (PerR) from Group A streptococcus, recombinant 6xHis-tagged, wild type (Streptococcus pyogenes (Group A streptococcus) serotype M1 strain A20); experiment: SEC; Superdex 75 size exclusion chromatography of purified PerR against molecular weight markers; apparent molecular weight about 42 kDa for the wild type
PerR WT = target: T1, PerR WT (Streptococcus pyogenes (GAS) serotype …, UniProt Q9A1M6 1-155); experiment: EMSA; EMSA: 20 mM Tris pH 8.0, 50 mM KCl, 5% glycerol, 50 ug/ml BSA, 15 min at 25 C; 6% native PAGE in Tris-borate, ethidium bromide; conditions: protein: recombinant; tags: C-terminal 6xHis (pET-21b NdeI/XhoI); chain copies: 2
T1 sequence: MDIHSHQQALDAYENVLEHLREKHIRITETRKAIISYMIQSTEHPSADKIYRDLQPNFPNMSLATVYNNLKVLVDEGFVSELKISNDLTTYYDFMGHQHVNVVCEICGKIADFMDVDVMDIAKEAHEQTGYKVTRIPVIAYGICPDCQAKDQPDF

Molecule | stoichiometry N [1] | binding result (PerR WT)
peroxide response regulator (PerR) from Group A streptococcus, recombinant 6xHis-tagged, wild type (natural protein) | 2 | –
dpr segment (-185 to -135) (dsDNA) DNA 1: ACACTTAATTAGAATCATTATCGTTTTATATCTATATTCTACAATGATTAA DNA 2: TTAATCATTGTAGAATATAGATATAAAACGATAATGATTCTAATTAAGTGT | – | binds
